Measurements as given in article PMC4150762, “The DEAD-box helicase Ded1 from yeast is an mRNP cap-associated protein that shuttles between the cytoplasm and nucleus” (Nucleic Acids Research, 2014).
Read-outs that look alike come from different tables or passages of the source.

Assays:
[1] = target: T1, Ded1-His6 (S. cerevisiae, UniProt P06634 1-604)
[2] = target: T1, Ded1-His6; assay: cell-based or functional assay
[3] = target: T2, eIF4G9 (S. cerevisiae, UniProt P39935 160-492); assay: pull-down; 7-methyl-GTP Sepharose beads loaded with 5 μg purified eIF4E or Cbp20, 5 μg of the purified proteins added with 50 U RNase I, 90 min on ice, TpB buffer (20 mM HEPES pH 7.9, 100 mM KCl, 2 mM MgCl2, 2 mM DTT), eluted with 1 mM 7-methyl-GTP; Coomassie-stained SDS PAGE; conditions: both partners purified
T2 construct: also called eIF4G9 fragment (160–492); shorten version of eIF4G1; source: E. coli (pGEX-1λT), purified
T2 sequence (looked up): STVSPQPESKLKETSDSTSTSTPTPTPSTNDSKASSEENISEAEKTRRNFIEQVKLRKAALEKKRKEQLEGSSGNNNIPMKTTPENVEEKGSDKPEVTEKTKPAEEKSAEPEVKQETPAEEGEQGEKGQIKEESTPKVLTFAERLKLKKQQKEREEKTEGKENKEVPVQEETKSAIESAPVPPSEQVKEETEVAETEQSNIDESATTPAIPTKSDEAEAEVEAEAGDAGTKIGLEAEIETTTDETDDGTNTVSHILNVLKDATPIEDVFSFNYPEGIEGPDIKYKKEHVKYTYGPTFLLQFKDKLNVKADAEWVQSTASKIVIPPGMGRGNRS

[4] = target: T1, Ded1-His6; assay: pull-down; purified GST-eIF4G1 fragments bound to glutathione Sepharose beads, incubated with Ded1, eluted with 10 mM reduced glutathione; Coomassie-stained SDS PAGE, verified by western blot for Ded1; same results with or without RNase I or AMP-PNP; conditions: both partners purified

T1 sequence (P06634 whole entry): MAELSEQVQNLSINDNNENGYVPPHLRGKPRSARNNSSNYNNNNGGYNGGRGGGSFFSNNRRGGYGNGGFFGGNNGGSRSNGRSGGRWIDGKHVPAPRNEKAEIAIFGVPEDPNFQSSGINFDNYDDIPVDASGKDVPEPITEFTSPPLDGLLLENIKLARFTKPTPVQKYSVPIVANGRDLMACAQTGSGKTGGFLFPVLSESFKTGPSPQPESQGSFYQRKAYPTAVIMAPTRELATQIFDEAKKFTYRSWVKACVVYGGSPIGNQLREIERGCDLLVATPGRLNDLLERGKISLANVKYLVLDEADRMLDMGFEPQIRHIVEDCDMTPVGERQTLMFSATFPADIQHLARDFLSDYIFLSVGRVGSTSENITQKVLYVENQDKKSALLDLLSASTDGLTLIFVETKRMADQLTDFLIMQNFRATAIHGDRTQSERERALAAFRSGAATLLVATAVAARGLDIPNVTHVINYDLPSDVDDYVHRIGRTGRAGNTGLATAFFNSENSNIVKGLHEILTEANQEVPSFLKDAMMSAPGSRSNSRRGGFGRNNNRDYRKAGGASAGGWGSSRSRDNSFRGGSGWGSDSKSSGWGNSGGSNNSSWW

B1: Cbp80 (557–861) (domain or fragment)
chain: QLINYYQSLFTGYTVEEDSVRKNDLYFRQEGVPMENTVRKILDYTHKANNSREVTELESILGELKNEYGSIISDFNRFVIILLVQAVTDSGSRSLSHANKYINDLKEDLKTIFAKIELDIETKEYIIIEAVLTFWNANPQTGFLVADAFKYAGLLTSRTIFTFIFNETGLKNNGLIEATAIEAVFRNLSQQISEENESGNNFEFVFERLCTIANSTIDLLDVNADEDIEIPKVNGEMDIDDIEDDKLDLKWKYFTVIGFIKSILRRYSHEYRELADKFIANIDNAIPHESTRRTISNWIQETKEV
- RNA-dependent ATPase activity, % Ded1 [1]: 144%

B2: GST-eIF4G1 fragment 1-596 (domain or fragment, S. cerevisiae, UniProt P39935 1-596, looked up)
chain: MTDETAHPTQSASKQESAALKQTGDDQQESQQQRGYTNYNNGSNYTQKKPYNSNRPHQQRGGKFGPNRYNNRGNYNGGGSFRGGHMGANSSNVPWTGYYNNYPVYYQPQQMAAAGSAPANPIPVEEKSPVPTKIEITTKSGEHLDLKEQHKAKLQSQERSTVSPQPESKLKETSDSTSTSTPTPTPSTNDSKASSEENISEAEKTRRNFIEQVKLRKAALEKKRKEQLEGSSGNNNIPMKTTPENVEEKGSDKPEVTEKTKPAEEKSAEPEVKQETPAEEGEQGEKGQIKEESTPKVLTFAERLKLKKQQKEREEKTEGKENKEVPVQEETKSAIESAPVPPSEQVKEETEVAETEQSNIDESATTPAIPTKSDEAEAEVEAEAGDAGTKIGLEAEIETTTDETDDGTNTVSHILNVLKDATPIEDVFSFNYPEGIEGPDIKYKKEHVKYTYGPTFLLQFKDKLNVKADAEWVQSTASKIVIPPGMGRGNRSRDSGRFGNNSSRGHDFRNTSVRNMDDRANSRTSSKRRSKRMNDDRRSNRSYTSRRDRERGSYRNEEKREDDKPKEEVAPLVPSANRWVPKFKSKKTEKKLAPDG
- RNA-dependent ATPase activity, % Ded1 [2]: 206%

B3: GST-NAB2-HIS6 (natural protein, S. cerevisiae, UniProt P32505 1-525, looked up)
chain: MSQEQYTENLKVIVAEKLAGIPNFNEDIKYVAEYIVLLIVNGGTVESVVDELASLFDSVSRDTLANVVQTAFFALEALQQGESAENIVSKIRMMNAQSLGQSDIAQQQQQQQQQQQPDIAQQQPQQQPQQQPQQQPQQQPQQQPQQQPQQQPQQQPQLQPLQPQLGTQNAMQTDAPATPSPISAFSGVVNAAAPPQFAPVDNSQRFTQRGGGAVGKNRRGGRGGNRGGRNNNSTRFNPLAKALGMAGESNMNFTPTKKEGRCRLFPHCPLGRSCPHAHPTKVCNEYPNCPKPPGTCEFLHPNEDEELMKEMERTREEFQKRKADLLAAKRKPVQTGIVLCKFGALCSNPSCPFGHPTPANEDAKVIDLMWCDKNLTCDNPECRKAHSSLSKIKEVKPISQKKAAPPPVEKSLEQCKFGTHCTNKRCKYRHARSHIMCREGANCTRIDCLFGHPINEDCRFGVNCKNIYCLFRHPPGRVLPEKKGAAPNSNVPTNERPFALPENAIIENAPPQTSFTHQEQDTEMN
- RNA-dependent ATPase activity, % Ded1 [2]: 150%

B4: eIF4E with an amino-terminal His6 tag (natural protein, S. cerevisiae, UniProt P07260 1-213, looked up)
chain: MSVEEVSKKFEENVSVDDTTATPKTVLSDSAHFDVKHPLNTKWTLWYTKPAVDKSESWSDLLRPVTSFQTVEEFWAIIQNIPEPHELPLKSDYHVFRNDVRPEWEDEANAKGGKWSFQLRGKGADIDELWLRTLLAVIGETIDEDDSQINGVVLSIRKGGNKFALWTKSEDKEPLLRIGGKFKQVLKLTDDGHLEFFPHSSANGRHPQPSITL
notes: eIF4E (CDC33) of S. cerevisiae cloned into the NdeI-BamHI sites of pET15b; also called CDC33; source: E. coli (pET15b), purified on nickel-agarose
- binding result [3]: binds
- RNA-dependent ATPase activity, % Ded1 [2]: 105%

B5: Pab1 with an amino-terminal His6 tag (natural protein, S. cerevisiae, UniProt P04147 1-577, looked up)
chain: MADITDKTAEQLENLNIQDDQKQAATGSESQSVENSSASLYVGDLEPSVSEAHLYDIFSPIGSVSSIRVCRDAITKTSLGYAYVNFNDHEAGRKAIEQLNYTPIKGRLCRIMWSQRDPSLRKKGSGNIFIKNLHPDIDNKALYDTFSVFGDILSSKIATDENGKSKGFGFVHFEEEGAAKEAIDALNGMLLNGQEIYVAPHLSRKERDSQLEETKAHYTNLYVKNINSETTDEQFQELFAKFGPIVSASLEKDADGKLKGFGFVNYEKHEDAVKAVEALNDSELNGEKLYVGRAQKKNERMHVLKKQYEAYRLEKMAKYQGVNLFVKNLDDSVDDEKLEEEFAPYGTITSAKVMRTENGKSKGFGFVCFSTPEEATKAITEKNQQIVAGKPLYVAIAQRKDVRRSQLAQQIQARNQMRYQQATAAAAAAAAGMPGQFMPPMFYGVMPPRGVPFNGPNPQQMNPMGGMPKNGMPPQFRNGPVYGVPPQGGFPRNANDNNQFYQQKQRQALGEQLYKKVSAKTSNEEAAGKITGMILDLPPQEVFPLLESDELFEQHYKEASAAYESFKKEQEQQTEQA
- RNA-dependent ATPase activity, % Ded1 [2]: 119%

B6: GST-eIF4G1 fragment 542-952 (domain or fragment, S. cerevisiae, UniProt P39935 542-952, looked up)
chain: SYTSRRDRERGSYRNEEKREDDKPKEEVAPLVPSANRWVPKFKSKKTEKKLAPDGKTELLDKDEVERKMKSLLNKLTLEMFDAISSEILAIANISVWETNGETLKAVIEQIFLKACDEPHWSSMYAQLCGKVVKELNPDITDETNEGKTGPKLVLHYLVARCHAEFDKGWTDKLPTNEDGTPLEPEMMSEEYYAAASAKRRGLGLVRFIGFLYRLNLLTGKMMFECFRRLMKDLTDSPSEETLESVVELLNTVGEQFETDSFRTGQATLEGSQLLDSLFGILDNIIQTAKISSRIKFKLIDIKELRHDKNWNSDKKDNGPKTIQQIHEEEERQRQLKNNSRSNSRRTNNSSNRHSFRRDAPPASKDSFITTRTYSQRNSQRAPPPKEEPAAPTSTATNMFSALMGESDDEE
- RNA-dependent ATPase activity, % Ded1 [2]: 141%

B7: Gle1 (recombinant) (natural protein, S. cerevisiae, UniProt Q12315 1-538, looked up)
chain: MRFVFDEVFNSDTDSPEFEETCSTTSSTSSQCPTPEPSPAIKLPSFTKVGTKKLVNESVVILDPALENALRDLNLQSKLIPINEPIVAASSIIVPHSTNMPLPRASHSSLLDNAKNSNATAPLLEAIEESFQRKMQNLVLANQKEIQSIRENKRRVEEQRKRKEEEERKRKEAEEKAKREQELLRQKKDEEERKRKEAEAKLAQQKQEEERKKIEEQNEKERQLKKEHEAKLLQQKDKLGKAVTNFDKISKMFWHYKDKIAQIKQDIVLPIKKADVNVRNLLSRHKRKINPKFGQLTNSNQQLFKIQNELTQLINDTKGDSLAYHWILNFIAKAVVHQAETEVRVKPESALPLGKLTLYLLVQFPELQELFMARLVKKCPFVIGFTCEIDTEKGRQNMGWKRNNENKWEDNTSYDERMGGILSLFAIITRLQLPQEFITTTSHPFPIALSWHILARICNTPLNLITNTHFVILGSWWDAAAVQFLQAYGNQASKLLILIGEELTSRMAEKKYVGAARLRILLEAWQNNNMESFPEMSP
- RNA-dependent ATPase activity, % Ded1 [2]: 191%

B8: 1–387-GST fragment of eIF4G1 (domain or fragment, S. cerevisiae, UniProt P39935 1-387, looked up)
chain: MTDETAHPTQSASKQESAALKQTGDDQQESQQQRGYTNYNNGSNYTQKKPYNSNRPHQQRGGKFGPNRYNNRGNYNGGGSFRGGHMGANSSNVPWTGYYNNYPVYYQPQQMAAAGSAPANPIPVEEKSPVPTKIEITTKSGEHLDLKEQHKAKLQSQERSTVSPQPESKLKETSDSTSTSTPTPTPSTNDSKASSEENISEAEKTRRNFIEQVKLRKAALEKKRKEQLEGSSGNNNIPMKTTPENVEEKGSDKPEVTEKTKPAEEKSAEPEVKQETPAEEGEQGEKGQIKEESTPKVLTFAERLKLKKQQKEREEKTEGKENKEVPVQEETKSAIESAPVPPSEQVKEETEVAETEQSNIDESATTPAIPTKSDEAEAEVEAEAGDA
notes: not among the constructs of the methods
- binding result [4]: binds

B9: Cbp80 (1–556) (domain or fragment)
chain: MFNRKRRGDFDEDENYRDFRPRMPKRQRIPPVVQLCKEMMPDIRTIGESVKAFEDDIKFLSEAIMNEYGHEDYFNNALLSTLNAVVVEQPQKQAAIALLTMVVNSKNNVAGKSIINYFFEELQKWCKQTYNDEFKSTSNETGPWNKIKLILRFLSILSPMFLVDELINIYKSLFELSIELNNLDPGNRVPLSEAIYTNTLLNIPYLFFFNRNNDGLRTKVEELLAYVEQNYLVKTTDINLLREYNGEPPYEMVELVRVVLPNVKKALINNLEQLNELFPDWNHLLTPQTGDEGFNDALTLPSVDDLKSFVRLNKNFGSVDSMWKTPRYAFHVYLPNSAGNFETVVPISTYAGQLFNDIIIDLVESLEFNRKEVARQVITLDLFFKAGIFTEPGESIAQLIATYEENPLAPTFKIEDLAIETILGLIFKLPSVSQPFAYFYTLLVDICQNSPKAIAPVFGRAFRFFYSHLDSLDFELKLRYLDWFSIQMSNFNFSWKWNEWEDDSIKFGKYFYNPKVNFAKNLIQKELRLTSNFSEVEDSLPQEFTKYLDTSYIPRD
- RNA-dependent ATPase activity, % Ded1 [1]: 220%

B10: GST-eIF4G1 fragment 882-952 (domain or fragment, S. cerevisiae, UniProt P39935 882-952, looked up)
chain: RSNSRRTNNSSNRHSFRRDAPPASKDSFITTRTYSQRNSQRAPPPKEEPAAPTSTATNMFSALMGESDDEE
notes: eIF4G1 of S. cerevisiae, residues 882-952; also called 882–952 fragment; source: E. coli (pGEX-2T), purified on glutathione Sepharose; not shown: GST, N-terminal, kept
- binding result [4]: binds
